The binders below were run against T1, CD47 on the surface of tumor cells (human, UniProt Q08722 19-323) (assay: FACS, tumor cells, 1 nM).
T1 construct: whole, on cells; Same protein as m4; also called CD47 antigen on the surface of U937 and CCRF cells; SKOV-3
Description: The difference between the binding of the mutant to CD47 on the surface of tumor cells and CD47 on the surface of red blood cells was evaluated.

Row | Binder | FACS (MFI)
1 | h140Hm13/h140Lm8 (antibody, V domains shown, also called h140Lmut8; mut8) VH: EVQLVQSGAEVKKPGASVKVSCKASGYKFTNYVMSWVRQAPGQRLEWMGYINPYNDAIKYNEKFTGRVTITRDTSASTAYMELSSLRSEDTAVYYCAREGDFYANYGRLGFAYWGQGTLVTVSS VL: DIQMTQSPSSLSASVGDRVTITCRASQDITNYLNWYQQKPGKAPKLLIYYTSRLHSGVPSRFSGSGSGTDYTFTISSLQPEDIATYFCQQGDTRPYTFGGGTKVEIK | 26400
2 | h140Hm13/h140Lm13 (antibody, V domains shown) VH: EVQLVQSGAEVKKPGASVKVSCKASGYKFTNYVMSWVRQAPGQRLEWMGYINPYNDAIKYNEKFTGRVTITRDTSASTAYMELSSLRSEDTAVYYCAREGDFYANYGRLGFAYWGQGTLVTVSS VL: DIQMTQSPSSLSASVGDRVTITCRASQDITNYLNWYQQKPGKAPKLLIYYTSRLHSGVPSRFSGSGSGTDYTFTISSLQPEDIATYFCQQGDTFPYTFGGGTKVEIK | 10300
3 | h140Hm13/h140Lm11 (antibody, V domains shown) VH: EVQLVQSGAEVKKPGASVKVSCKASGYKFTNYVMSWVRQAPGQRLEWMGYINPYNDAIKYNEKFTGRVTITRDTSASTAYMELSSLRSEDTAVYYCAREGDFYANYGRLGFAYWGQGTLVTVSS VL: DIQMTQSPSSLSASVGDRVTITCRASQDITNYLNWYQQKPGKAPKLLIYYTSRLSSGVPSRFSGSGSGTDYTFTISSLQPEDIATYFCQQGDTRPYTFGGGTKVEIK | 19400
4 | h140Hm13/h140Lm14 (antibody, V domains shown) VH: EVQLVQSGAEVKKPGASVKVSCKASGYKFTNYVMSWVRQAPGQRLEWMGYINPYNDAIKYNEKFTGRVTITRDTSASTAYMELSSLRSEDTAVYYCAREGDFYANYGRLGFAYWGQGTLVTVSS VL: DIQMTQSPSSLSASVGDRVTITCRASQDITNYLNWYQQKPGKAPKLLIYYTSRLQSGVPSRFSGSGSGTDYTFTISSLQPEDIATYFCQQGDTYPYTFGGGTKVEIK | 7520
5 | h140Hm13/h140Lm10 (antibody, V domains shown, also called h140Lmut10; mut10) VH: EVQLVQSGAEVKKPGASVKVSCKASGYKFTNYVMSWVRQAPGQRLEWMGYINPYNDAIKYNEKFTGRVTITRDTSASTAYMELSSLRSEDTAVYYCAREGDFYANYGRLGFAYWGQGTLVTVSS VL: DIQMTQSPSSLSASVGDRVTITCRASQDITNYLNWYQQKPGKAPKLLIYYTSRLHSGVPSRFSGSGSGTDYTFTISSLQPEDIATYFCQQGAGRPYTFGGGTKVEIK | 40900
6 | h140Hm13/h140Lm12 (antibody, V domains shown) VH: EVQLVQSGAEVKKPGASVKVSCKASGYKFTNYVMSWVRQAPGQRLEWMGYINPYNDAIKYNEKFTGRVTITRDTSASTAYMELSSLRSEDTAVYYCAREGDFYANYGRLGFAYWGQGTLVTVSS VL: DIQMTQSPSSLSASVGDRVTITCRASQDITNYLNWYQQKPGKAPKLLIYYTSRLQSGVPSRFSGSGSGTDYTFTISSLQPEDIATYFCQQGDTRPYTFGGGTKVEIK | 26400

Each binder was assayed against T2, recombinant antigen of the extracellular region of CD47 (Sino Biological, Cat: 12283-H08H) (human, UniProt Q08722 19-139) (assay: Fortebio BLI, recombinant CD47 extracellular region).
T2 construct: extracellular domain; also called recombinant CD47 extracellular region; CD47 recombinant protein

Row | Binder | Kd [nM] | koff [s⁻¹] | kon [M⁻¹ s⁻¹]
7 | 140Hm2/hz140L (Table 2) (antibody, V domains shown, also called hz140-Hm/hz140L) VH: QVQLVQSGAEVKKPGASVKVSCKASGYKFTNYAMHWVRQAPGQRLEWMGYINPYNDGIKYNEKFTGRVTITRDTSASTAYMELSSLRSEDTAVYYCAREGDFYANYGRLGFAYWGQGTLVTVSS VL: DIQMTQSPSSLSASVGDRVTITCRASQDITNYLNWYQQKPGKAPKLLIYYTSRLHSGVPSRFSGSGSGTDYTFTISSLQPEDIATYFCQQGDTFPRTFGGGTKVEIK | 2.67 | 0.00071 | 266000
8 | 140Hm6/hz140L (Table 2) (antibody, V domains shown, also called hz140-Hm/hz140L) VH: QVQLVQSGAEVKKPGASVKVSCKASGYKFTNYVMHWVRQAPGQRLEWMGYINPYNDGIKYNEKFQGRVTITRDTSASTAYMELSSLRSEDTAVYYCAREGDFYANYGRLGFAYWGQGTLVTVSS VL: DIQMTQSPSSLSASVGDRVTITCRASQDITNYLNWYQQKPGKAPKLLIYYTSRLHSGVPSRFSGSGSGTDYTFTISSLQPEDIATYFCQQGDTFPRTFGGGTKVEIK | 22.6 | 0.00707 | 313000
9 | 140Hm3/hz140L (Table 2) (antibody, V domains shown, also called hz140-Hm/hz140L) VH: QVQLVQSGAEVKKPGASVKVSCKASGYKFTNYVMSWVRQAPGQRLEWMGYINPYNDGIKYNEKFTGRVTITRDTSASTAYMELSSLRSEDTAVYYCAREGDFYANYGRLGFAYWGQGTLVTVSS VL: DIQMTQSPSSLSASVGDRVTITCRASQDITNYLNWYQQKPGKAPKLLIYYTSRLHSGVPSRFSGSGSGTDYTFTISSLQPEDIATYFCQQGDTFPRTFGGGTKVEIK | 5.12 | 0.00103 | 201000
10 | 140Hm8/hz140L (Table 2) (antibody, V domains shown, also called hz140-Hm/hz140L) VH: QVQLVQSGAEVKKPGASVKVSCKASGYKFTNYVMHWVRQAPGQRLEWMGYINPYNDAIKYNEKFTGRVTITRDTSASTAYMELSSLRSEDTAVYYCAREGDFYANYGRLGFAYWGQGTLVTVSS VL: DIQMTQSPSSLSASVGDRVTITCRASQDITNYLNWYQQKPGKAPKLLIYYTSRLHSGVPSRFSGSGSGTDYTFTISSLQPEDIATYFCQQGDTFPRTFGGGTKVEIK | 3.87 | 0.00094 | 243000
11 | 140Hm5/hz140L (Table 2) (antibody, V domains shown, also called hz140-Hm/hz140L) VH: QVQLVQSGAEVKKPGASVKVSCKASGYKFTNYVMHWVRQAPGQRLEWMGYINPGNDGIKYNEKFTGRVTITRDTSASTAYMELSSLRSEDTAVYYCAREGDFYANYGRLGFAYWGQGTLVTVSS VL: DIQMTQSPSSLSASVGDRVTITCRASQDITNYLNWYQQKPGKAPKLLIYYTSRLHSGVPSRFSGSGSGTDYTFTISSLQPEDIATYFCQQGDTFPRTFGGGTKVEIK | 20.8 | 0.00467 | 224000
12 | 140Hm9/hz140L (Table 2) (antibody, V domains shown, also called hz140-Hm/hz140L) VH: QVQLVQSGAEVKKPGASVKVSCKASGYKFTNYVMHWVRQAPGQRLEWMGYINPYNEGIKYNEKFTGRVTITRDTSASTAYMELSSLRSEDTAVYYCAREGDFYANYGRLGFAYWGQGTLVTVSS VL: DIQMTQSPSSLSASVGDRVTITCRASQDITNYLNWYQQKPGKAPKLLIYYTSRLHSGVPSRFSGSGSGTDYTFTISSLQPEDIATYFCQQGDTFPRTFGGGTKVEIK | 3.92 | 0.000847 | 216000
13 | 140Hm4/hz140L (Table 2) (antibody, V domains shown, also called hz140-Hm/hz140L) VH: QVQLVQSGAEVKKPGASVKVSCKASGYKFTNYVMHWVRQAPGQRLEWMGWINPYNDGIKYNEKFTGRVTITRDTSASTAYMELSSLRSEDTAVYYCAREGDFYANYGRLGFAYWGQGTLVTVSS VL: DIQMTQSPSSLSASVGDRVTITCRASQDITNYLNWYQQKPGKAPKLLIYYTSRLHSGVPSRFSGSGSGTDYTFTISSLQPEDIATYFCQQGDTFPRTFGGGTKVEIK | 6.17 | 0.00216 | 350000
14 | 140Hm7/hz140L (Table 2) (antibody, V domains shown, also called hz140-Hm/hz140L) VH: QVQLVQSGAEVKKPGASVKVSCKASGYKFTNYVMHWVRQAPGQRLEWMGYINPYNDGIKYNEKFTGRVTITRDTSASTAYMELSSLRSEDTAVYYCAREGDFYANYGRLGFDYWGQGTLVTVSS VL: DIQMTQSPSSLSASVGDRVTITCRASQDITNYLNWYQQKPGKAPKLLIYYTSRLHSGVPSRFSGSGSGTDYTFTISSLQPEDIATYFCQQGDTFPRTFGGGTKVEIK | 61.4 | 0.0131 | 213000
15 | 140Hm10/hz140L (Table 2) (antibody, V domains shown, also called hz140-Hm/hz140L) VH: QVQLVQSGAEVKKPGASVKVSCKASGYKFTNYVMSWVRQAPGQRLEWMGYINPYNDAIKYNEKFTGRVTITRDTSASTAYMELSSLRSEDTAVYYCAREGDFYANYGRLGFAYWGQGTLVTVSS VL: DIQMTQSPSSLSASVGDRVTITCRASQDITNYLNWYQQKPGKAPKLLIYYTSRLHSGVPSRFSGSGSGTDYTFTISSLQPEDIATYFCQQGDTFPRTFGGGTKVEIK | 7.83 | 0.00202 | 258000

The binders below were run against T2, recombinant antigen of the … (assay: Fortebio BLI, antibody on AHC sensor, CD47 extracellular region 100 nM;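 note: antibody held on the sensor through anti-human Fc capture, CD47 antigen in solution, association and dissociation phases each lasting 300 s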).

Row | Binder | Kd [nM] | koff [s⁻¹] | kon [M⁻¹ s⁻¹]
16 | hz140-Hm11/hz182-L (antibody, V domains shown) VH: QVQLVQSGAEVKKPGASVKVSCKASGYKFTNYVMSWVRQAPGQRLEWMGYINPYNDAIKYNEKFTGRVTITRDTSASTAYMELSSLRSEDTAVYYCAREGDFYANYGRLGFAYWGQGTLVTVSS VL: DIQMTQSPSSLSASVGDRVTITCRASQDISNYLNWYQQKPGKAPKLLLYYTSRLHSGVPSRFSGSGSGTDYTLTISSLQPEDFATYFCQQGAGRPYTFGGGTKVEIK | 6.53 | 0.0017 | 260000
17 | hz140-Hm10/hz182-L (antibody, V domains shown) VH: QVQLVQSGAEVKKPGASVKVSCKASGYKFTNYVMHWVRQAPGQRLEWMGYINPYNEGIKYNEKFTGRVTITRDTSASTAYMELSSLRSEDTAVYYCAREGDFYANYGRLGFAYWGQGTLVTVSS VL: DIQMTQSPSSLSASVGDRVTITCRASQDISNYLNWYQQKPGKAPKLLLYYTSRLHSGVPSRFSGSGSGTDYTLTISSLQPEDFATYFCQQGAGRPYTFGGGTKVEIK | < 0.001 | < 1e-07 | 206000
18 | hz140-Hm12/hz182-L (antibody, V domains shown) VH: QVQLVQSGAEVKKPGASVKVSCKASGYTFTNYVMSWVRQAPGQRLEWMGYINPYNDAIKYNEKFTGRVTITRDTSASTAYMELSSLRSEDTAVYYCAREGDFYANYGRLGFAYWGQGTLVTVSS VL: DIQMTQSPSSLSASVGDRVTITCRASQDISNYLNWYQQKPGKAPKLLLYYTSRLHSGVPSRFSGSGSGTDYTLTISSLQPEDFATYFCQQGAGRPYTFGGGTKVEIK | 14.7 | 0.00328 | 224000
19 | hz140-Hm9/hz182-L (antibody, V domains shown) VH: QVQLVQSGAEVKKPGASVKVSCKASGYKFTNYVMHWVRQAPGQRLEWMGYINPYNDAIKYNEKFTGRVTITRDTSASTAYMELSSLRSEDTAVYYCAREGDFYANYGRLGFAYWGQGTLVTVSS VL: DIQMTQSPSSLSASVGDRVTITCRASQDISNYLNWYQQKPGKAPKLLLYYTSRLHSGVPSRFSGSGSGTDYTLTISSLQPEDFATYFCQQGAGRPYTFGGGTKVEIK | < 0.001 | < 1e-07 | 223000

— US20230406921A1 (MABWELL SHANGHAI BIOSCIENCE, published 2023)
